Measured values reported in patent US20240101685A1, “NEAR INFRARED PHOTOIMMUNOTHERAPY (NIR-PIT) COMBINATION THERAPY TO TREAT CANCER” (THE UNITED STATES OF AMERICA, as represented by the …, priority 2021, published 2024).

Test system: PD-L1 expression on cancer cell lines MC38-luc and LL2-luc
Assay: Flow-cytometric analysis of PD-L1 expression with or without interferon gamma
Type: cell-based
Settings: cell culture, 20 ng/ml or 50 ng/ml IFNgamma
Method: FIG. 12: Flow cytometry analysis showing PD-L1 expression in cancer cell lines before and after stimulation with 20 ng/ml or 50 ng/ml IFNgamma (IFNγ).

B1: interferon gamma: immunoactivator cytokine (protein, UniProt P01579 24-161, looked up)
Interferon gamma: QDPYVKEAENLKKYFNAGHSDVADNGTLFLGILKNWKEESDRKIMQSQIVSFYFKLFKNFKDDQSIQKSVETIKEDMNVKFFNSNKKKRDDFEKLTNYSVTDLNVQRKAIHELIQVMAELSPAAKTGKRKRSQMLFRG
PD-L1 expression: conditionally enhanced the expression of PD-L1
PD-L1 expression (listed as IFN-gamma): PD-L1 expression increases
